We go through seven molecules from patent US20190241619A1.

The labels stand for the following.
B1: HPV16 E7/11-18 peptide YMLDLQPE (peptide)
peptide: YMLDLQPE
modifications: not checked
B2: HPV16 E7/11-20 peptide … (peptide)
peptide: YMLDLQPETT
modifications: not checked
B3: HPV16 E7/12-20 peptide … (peptide)
peptide: MLDLQPETT
modifications: not checked
B4: HPV16 E7/12-19 peptide MLDLQPET (peptide)
peptide: MLDLQPET
modifications: not checked
B5: HPV16 E7/11-21 peptide … (peptide)
peptide: YMLDLQPETTD
modifications: not checked
B6: HPV16 E7/14-23 peptide … (peptide)
peptide: DLQPETTDLY
modifications: not checked
B7: HPV16 E7/18-25 peptide ETTDLYCY (peptide)
peptide: ETTDLYCY
modifications: not checked

The target in the first assay is HLA-A2 (human). Kind of assay: experimental peptide-HLA binding affinity; method not described.
As for B1, the Binding affinity is 8.07 µM.

Molecule B2 gave a Binding affinity of 2.19 µM.

The molecule B3 gave a Binding affinity of 3.6 µM.

For the molecule B4, the Binding affinity was determined as 53.7 µM.

B5 came in with a Binding affinity of 2.37 µM.

The next assay concerns the target HLA-A1 (human). Described as above.
On to B6, for which the Binding affinity stood at 1.62 µM.

For the molecule B7, the Binding affinity was 11.5 µM.
